Data: patent publication KR20230039786A (dated 2023)

Target: SARS-CoV NP antigen (Sino Biological) (SARS-CoV, UniProt P59595 1-422)
Assay: indirect ELISA, SARS-CoV NP coated, anti-mouse IgG-HRP

Sequence of SARS-CoV NP antigen (Sino Biological) (P59595 whole entry): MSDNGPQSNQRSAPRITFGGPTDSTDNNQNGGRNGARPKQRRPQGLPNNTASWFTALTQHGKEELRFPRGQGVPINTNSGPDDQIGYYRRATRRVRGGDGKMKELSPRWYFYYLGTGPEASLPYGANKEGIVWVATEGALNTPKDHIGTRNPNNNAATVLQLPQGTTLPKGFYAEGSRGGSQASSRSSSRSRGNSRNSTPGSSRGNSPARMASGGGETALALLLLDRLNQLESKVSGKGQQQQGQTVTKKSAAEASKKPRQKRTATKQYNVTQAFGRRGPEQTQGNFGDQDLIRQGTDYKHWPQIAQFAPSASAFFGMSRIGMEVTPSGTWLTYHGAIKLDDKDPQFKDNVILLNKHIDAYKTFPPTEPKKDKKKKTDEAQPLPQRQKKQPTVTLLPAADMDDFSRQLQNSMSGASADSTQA

| Binder | EC50 [ng/mL] |
| --- | --- |
| 3F10 anti-NP monoclonal antibody (antibody, V domains shown) VH: EVQLEESGPELKKPGETVKISCKASGYTFTDYSMHWVKQAPGKGLKWMGWINTETGEPTYADDFKGRFAFSLETSASTASLQINNLKNEDTATYFCGSGSRYSWYFDVWGAGTTVTVSS VL: DIVLTQSPKFMSTSLGDRVSVTCKASQSVGTNVAWFQQNSGQSPKALIYSASYRYSGVPDRFTGSGSGTDFTLTISNVKSEDLAEYFCQQYNSYPLAFGGGTKVEIK | 10 |
| 5B6 anti-NP monoclonal antibody (antibody, V domains shown) VH: QVQLQESGPELKKPGETVKISCTASGYTFANYGMNWVKQAPGKGLKWMGWINTYTGETTYADDFKGRFAFSLETSASTASLQINKLKNEDTATYFCTRSVLLRSYFDYGGQGTTLTVSS VL: DIVMTQSPKFMSTSVGDRVSITCEASQDVTTAVAWYQQKPGQSPKLLIYSASYRFAGVPDRFTGSGSGTDFTFTISSVQAEDLAVYYCQQHYSSPLTFGAGTKLELK | 4 |
| 3E10 anti-NP monoclonal antibody (antibody, V domains shown) VH: EVQLEQSGPELVRPGVSVKISCKGSGYTFTDYAMHWVKQSHAKSLEWIGVISTYSGNTSYNQKFKGKATMTVDKSSSTAYMELARLTAEDSAIYYCANGGNYGFDYWGQGTTLTVSS VL: DIVLTQSPKFMSTSVGDRVSITCKASQDVGTAVAWYQQKPGQSPRLLIYWTSTRHTGVPDRFTGSGSGTDFTLTISNVQSEDLADYFCQQYSSYPLTFGGGTKLEIK | 2 |
| 5B6.8 anti-NP monoclonal antibody (antibody, V domains shown) VH: QVQLQESGPELVRPGVSVKISCKGSGYTFTDYAMHWVKQSHAKSLEWIGVISTYSGNTSYNQKFKGKATMTVDKSSSTAYMELARLTAEDSAIYYCANGGNYGFDYWGQGTTLTVSS VL: DIVITQSPKFMSTSVGDRVSITCEASQDVTTAVAWYQQKPGQSPKLLIYSASYRFTGVPDRFTGSGSGTDFTFTISSVQAEDLAVYYCQQHYSSPLTFGAGTKLELK | 1320 |
